From US20240252635A1 (Genmab, published 2024) come the findings set out here.

In test [1] the target is T1, human CD37 (human (Homo sapiens), UniProt P11049 1-281).
T1 construct: Endogenous on Daudi cells, Raji cells and human blood B cells; also called Leukocyte Antigen CD37; GP52-40
T1 sequence: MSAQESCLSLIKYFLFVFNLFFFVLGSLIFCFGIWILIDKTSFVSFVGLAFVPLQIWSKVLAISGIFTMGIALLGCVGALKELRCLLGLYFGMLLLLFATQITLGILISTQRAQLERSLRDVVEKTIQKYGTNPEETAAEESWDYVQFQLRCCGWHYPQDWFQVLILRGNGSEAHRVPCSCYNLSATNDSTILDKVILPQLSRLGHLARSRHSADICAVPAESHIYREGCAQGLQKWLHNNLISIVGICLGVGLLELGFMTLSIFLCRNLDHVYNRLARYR
The test can be described thus: flow cytometry on Daudi cells. The method, then:
(§1) Binding to cell surface expressed CD37 (Daudi cells, CHO cells expressing cynomolgus CD37) was determined by flow cytometry. Cells, resuspended in RPMI containing 0.2% BSA, were seeded at 100,000 cells/well in polystyrene 96 well round-bottom plates (Greiner bio-one Cat #650101) and centrifuged for 3 minutes at 300×g, 4° C. Serial dilutions (0.003-10 μg/mL final antibody concentration in 3.33× serial dilutions) of CD37 or control antibodies were added and cells were incubated for 30 minutes at 4° C. Plates were washed/centrifuged twice using FACS buffer (PBS/0.1% BSA/0.01% Na-Azide). Next, cells were incubated for 30 minutes at 4° C. with R-Phycoerythrin (PE)-conjugated goat-anti-human IgG F(ab′)2 (Jackson ImmunoResearch Laboratories, Inc., West Grove, PA; cat #: 109-116-098) diluted 1/100 in PBS/0.1% BSA/0.01% Na-Azide. Cells were washed/centrifuged twice using FACS buffer, resuspended in 30 μL FACS buffer and analyzed by determining mean fluorescent intensities using an Intellicyt iQue™ screener (Westburg). Binding curves were generated using non-linear regression (sigmoidal dose-response with variable slope) analyses within GraphPad Prism V6.04 software (GraphPad Software, Sand Diego, CA, USA).
On the technique in general: Flow cytometry measures light scatter and fluorescence of single cells or particles in a stream.

In test [2] the target is T2, cynomolgus monkey CD37 (cynomolgus monkey (Macaca fascicularis), UniProt P11049 1-281 (human entry)).
T2 construct: also called mfCD37; cynomolgus CD37
T2 chain: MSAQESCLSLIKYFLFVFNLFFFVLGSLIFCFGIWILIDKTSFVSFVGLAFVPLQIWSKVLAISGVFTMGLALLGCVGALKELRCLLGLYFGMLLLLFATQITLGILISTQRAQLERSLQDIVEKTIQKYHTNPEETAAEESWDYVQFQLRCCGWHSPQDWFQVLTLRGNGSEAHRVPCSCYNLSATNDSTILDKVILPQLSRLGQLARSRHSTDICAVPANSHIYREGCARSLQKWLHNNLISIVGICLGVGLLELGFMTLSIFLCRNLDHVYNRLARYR
The test can be described thus: flow cytometry on CHO cells expressing cynomolgus monkey CD37. As to the method: as §1
Binding to CHO cells expressing cynomolgus monkey CD37 was determined by flow cytometry using a method as described above.

B1: IgG1-010-H5L2 (antibody)
heavy: not shown
light: AYDMTQSPSTLSASVGDRVTITCQASQNIIDYLAWYQQKPGKAPKLLIHKASTLASGVPSRFKGSGSGTEFTLTISSLQPDDFATYYCQQGYSNSNIDNTFGGGTKVEIKRTVAAPSVFIFPPSDEQLKSGTASVVCLLNNFYPREAKVQWKVDNALQSGNSQESVTEQDSKDSTYSLSSTLTLSKADYEKHKVYACEVTHQGLSSPVTKSFNRGEC
notes: Humanized, IgG1,kappa
For B1, the binding result in test [1] was “binds”.

B2: IgG1-010-H5L2-E430G (antibody)
heavy: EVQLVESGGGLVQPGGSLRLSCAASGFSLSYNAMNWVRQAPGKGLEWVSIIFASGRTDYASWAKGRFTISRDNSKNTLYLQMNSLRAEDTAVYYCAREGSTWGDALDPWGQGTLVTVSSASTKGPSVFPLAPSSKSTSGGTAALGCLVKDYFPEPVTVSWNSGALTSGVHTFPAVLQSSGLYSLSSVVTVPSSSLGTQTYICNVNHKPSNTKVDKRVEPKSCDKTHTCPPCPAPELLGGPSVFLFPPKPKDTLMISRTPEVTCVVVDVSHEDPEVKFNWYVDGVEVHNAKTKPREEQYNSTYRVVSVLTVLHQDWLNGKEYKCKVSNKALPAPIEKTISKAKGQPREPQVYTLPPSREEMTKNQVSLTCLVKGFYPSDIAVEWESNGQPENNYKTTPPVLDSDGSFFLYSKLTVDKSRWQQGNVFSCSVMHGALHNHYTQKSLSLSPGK
light: B1 light
notes: IgG1,kappa with E430G
As for B2, the binding result in test [1] and in test [2] was “binds” in each case.

B3: IgG1-005-H1L2-E430G (antibody)
heavy: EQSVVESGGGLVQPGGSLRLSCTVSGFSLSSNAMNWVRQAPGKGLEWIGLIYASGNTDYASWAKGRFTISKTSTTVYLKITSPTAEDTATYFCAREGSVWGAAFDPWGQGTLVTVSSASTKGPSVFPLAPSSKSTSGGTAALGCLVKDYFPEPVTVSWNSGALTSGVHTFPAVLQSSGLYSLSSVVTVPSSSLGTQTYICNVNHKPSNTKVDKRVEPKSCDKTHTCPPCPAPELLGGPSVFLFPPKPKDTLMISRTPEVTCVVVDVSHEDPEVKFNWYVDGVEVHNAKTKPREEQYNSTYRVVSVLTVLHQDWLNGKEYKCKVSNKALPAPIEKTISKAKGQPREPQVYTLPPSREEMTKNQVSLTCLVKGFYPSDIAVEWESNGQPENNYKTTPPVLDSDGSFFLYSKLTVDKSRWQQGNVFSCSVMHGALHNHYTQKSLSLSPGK
light: AYDMTQSPSSVSASVGDRVTITCQASQSISNWLAWYQQKPGKAPKQLIYAASTLASGVPSRFKGSGSGTDFTLTISSLQPEDFATYYCQQGYSNSNIDNTFGGGTKVEIKRTVAAPSVFIFPPSDEQLKSGTASVVCLLNNFYPREAKVQWKVDNALQSGNSQESVTEQDSKDSTYSLSSTLTLSKADYEKHKVYACEVTHQGLSSPVTKSFNRGEC
notes: IgG1,kappa with E430G
Regarding B3, the binding result in test [1] and in test [2] was “binds” in each case.

B4: IgG1-005-H1L2 (antibody)
heavy: not shown
light: B3 light
notes: Humanized, IgG1,kappa
With B4, the binding result in test [1] was “binds”.

B5: IgG1-005-H1L2-K409R-E430G (antibody)
heavy: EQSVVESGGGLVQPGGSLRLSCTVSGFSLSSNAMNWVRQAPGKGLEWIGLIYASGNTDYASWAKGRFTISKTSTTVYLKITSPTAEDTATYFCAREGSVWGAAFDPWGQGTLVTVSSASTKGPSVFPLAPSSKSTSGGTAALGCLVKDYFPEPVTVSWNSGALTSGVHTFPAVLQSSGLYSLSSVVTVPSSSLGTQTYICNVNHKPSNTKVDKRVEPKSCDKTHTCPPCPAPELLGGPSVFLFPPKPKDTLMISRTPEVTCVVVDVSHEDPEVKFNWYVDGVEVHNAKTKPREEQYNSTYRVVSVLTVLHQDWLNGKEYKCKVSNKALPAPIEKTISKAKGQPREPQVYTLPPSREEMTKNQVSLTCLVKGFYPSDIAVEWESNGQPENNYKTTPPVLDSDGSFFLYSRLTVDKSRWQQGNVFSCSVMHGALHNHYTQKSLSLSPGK
light: B3 light
notes: IgG1,kappa with K409R and E430G
Consider B5, for which the binding result in test [1] is “binds”.

B6: IgG1-G28.1 (antibody)
heavy: not shown
light: DIQMTQSPASLSASVGETVTITCRTSENVYSYLAWYQQKQGKSPQLLVSFAKTLAEGVPSRFSGSGSGTQFSLKISSLQPEDSGSYFCQHHSDNPWTFGGGTELEIKRTVAAPSVFIFPPSDEQLKSGTASVVCLLNNFYPREAKVQWKVDNALQSGNSQESVTEQDSKDSTYSLSSTLTLSKADYEKHKVYACEVTHQGLSSPVTKSFNRGEC
notes: IgG1,kappa
Turning to B6, the binding result is “binds” in test [1] and “no binding (tested: 0.003-10 µg/mL)” in test [2].

B7: IgG1-G28.1-E430G (antibody)
heavy: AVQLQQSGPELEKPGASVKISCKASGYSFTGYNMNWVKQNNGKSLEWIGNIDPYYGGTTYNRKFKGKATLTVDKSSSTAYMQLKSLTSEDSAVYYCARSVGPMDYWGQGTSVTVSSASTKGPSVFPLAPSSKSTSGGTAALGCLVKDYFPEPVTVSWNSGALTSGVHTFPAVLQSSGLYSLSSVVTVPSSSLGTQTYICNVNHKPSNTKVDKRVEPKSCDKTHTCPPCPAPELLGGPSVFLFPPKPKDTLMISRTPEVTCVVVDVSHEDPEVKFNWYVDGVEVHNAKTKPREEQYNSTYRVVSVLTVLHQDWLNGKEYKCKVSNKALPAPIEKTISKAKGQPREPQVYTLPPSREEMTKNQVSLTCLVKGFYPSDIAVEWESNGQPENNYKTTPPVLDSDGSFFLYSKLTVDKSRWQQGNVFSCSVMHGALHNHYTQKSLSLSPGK
light: B6 light
notes: IgG1,kappa with E430G
For B7, the binding result in test [1] was “binds”; in test [2], “no binding (tested: 0.003-10 µg/mL)”.

B8: IgG1-37.3 (antibody)
heavy: not shown
light: DIQMTQSPASLSVSVGETVTITCRASENIRSNLAWYQQKQGKSPQLLVNVATNLADGVPSRFSGSGSGTQYSLKINSLQSEDFGTYYCQHYWGTTWTFGGGTKLEIKRTVAAPSVFIFPPSDEQLKSGTASVVCLLNNFYPREAKVQWKVDNALQSGNSQESVTEQDSKDSTYSLSSTLTLSKADYEKHKVYACEVTHQGLSSPVTKSFNRGEC
notes: IgG1,kappa
As for B8, the binding result in test [1] is “binds”.

B9: IgG1-37.3-E430G (antibody)
heavy: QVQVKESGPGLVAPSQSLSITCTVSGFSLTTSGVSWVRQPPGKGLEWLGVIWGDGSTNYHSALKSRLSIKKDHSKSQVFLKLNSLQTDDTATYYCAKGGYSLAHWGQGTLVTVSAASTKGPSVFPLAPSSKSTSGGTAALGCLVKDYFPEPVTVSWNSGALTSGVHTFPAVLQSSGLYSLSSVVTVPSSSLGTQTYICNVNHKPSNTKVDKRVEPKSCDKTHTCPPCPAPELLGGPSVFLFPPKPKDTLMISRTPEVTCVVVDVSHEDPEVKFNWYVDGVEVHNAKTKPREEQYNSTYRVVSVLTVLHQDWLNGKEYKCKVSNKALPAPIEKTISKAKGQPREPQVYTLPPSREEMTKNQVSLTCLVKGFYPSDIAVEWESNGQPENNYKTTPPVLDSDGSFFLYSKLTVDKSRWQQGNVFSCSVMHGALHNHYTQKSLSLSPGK
light: B8 light
notes: IgG1,kappa with E430G
As to B9, in test [1], the binding result is “binds”.

B10: IgG1-004-H5L2 (antibody)
heavy: not shown
light: AQVLTQSPSPLSASVGDRVTITCQASQSVYNSQNLAWYQQKPGKAPKLLIYEASKLASGVPSRFKGSGSGTEFTLTISSLQPDDFATYYCQGEFSCISADCTAFGGGTKVEIKRTVAAPSVFIFPPSDEQLKSGTASVVCLLNNFYPREAKVQWKVDNALQSGNSQESVTEQDSKDSTYSLSSTLTLSKADYEKHKVYACEVTHQGLSSPVTKSFNRGEC
As to B10, the binding result in test [1] is “binds”.

B11: IgG1-004-H5L2-E430G (antibody)
heavy: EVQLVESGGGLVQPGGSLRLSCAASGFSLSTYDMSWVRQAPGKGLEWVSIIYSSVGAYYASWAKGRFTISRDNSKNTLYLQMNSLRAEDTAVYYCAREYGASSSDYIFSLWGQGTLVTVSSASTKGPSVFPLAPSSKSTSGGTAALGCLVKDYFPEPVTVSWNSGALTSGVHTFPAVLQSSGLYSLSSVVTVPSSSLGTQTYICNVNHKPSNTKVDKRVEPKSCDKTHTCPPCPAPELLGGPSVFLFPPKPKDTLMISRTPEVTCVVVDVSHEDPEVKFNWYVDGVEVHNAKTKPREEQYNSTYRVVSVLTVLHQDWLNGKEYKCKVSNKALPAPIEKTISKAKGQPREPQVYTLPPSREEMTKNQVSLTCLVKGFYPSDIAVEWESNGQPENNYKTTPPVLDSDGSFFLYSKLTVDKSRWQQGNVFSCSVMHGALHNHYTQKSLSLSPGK
light: B10 light
notes: IgG1,kappa with E430G (EU numbering)
For B11, the binding result in test [1] and in test [2] was “binds” throughout.

B12: IgG1-016-H5L2-E430G (antibody)
heavy: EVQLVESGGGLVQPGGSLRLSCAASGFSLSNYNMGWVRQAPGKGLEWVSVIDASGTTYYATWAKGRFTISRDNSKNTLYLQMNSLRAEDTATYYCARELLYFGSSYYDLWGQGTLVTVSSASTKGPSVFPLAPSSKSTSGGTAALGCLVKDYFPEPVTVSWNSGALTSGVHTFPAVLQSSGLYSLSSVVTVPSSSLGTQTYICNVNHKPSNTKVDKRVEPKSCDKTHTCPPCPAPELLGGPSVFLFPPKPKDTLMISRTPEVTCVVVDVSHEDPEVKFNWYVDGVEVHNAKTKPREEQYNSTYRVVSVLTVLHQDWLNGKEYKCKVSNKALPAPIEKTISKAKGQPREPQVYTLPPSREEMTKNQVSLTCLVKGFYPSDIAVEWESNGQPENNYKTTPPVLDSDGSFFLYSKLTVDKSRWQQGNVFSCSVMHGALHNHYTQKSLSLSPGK
light: DVVMTQSPSTLSASVGDRVTITCQASQNIDSNLAWYQQKPGKAPKFLIYYASNLPFGVPSRFKGSGSGTEFTLTISSLQPDDFATYYCQCADVGSTYVAAFGGGTKVEIKRTVAAPSVFIFPPSDEQLKSGTASVVCLLNNFYPREAKVQWKVDNALQSGNSQESVTEQDSKDSTYSLSSTLTLSKADYEKHKVYACEVTHQGLSSPVTKSFNRGEC
notes: IgG1,kappa with E430G
Consider B12, for which the binding result in test [1] and in test [2] was “binds” in each case.

B13: IgG1-016-H5L2-LC90S-F405L-E430G (antibody, V domains shown)
VH: EVQLVESGGGLVQPGGSLRLSCAASGFSLSNYNMGWVRQAPGKGLEWVSVIDASGTTYYATWAKGRFTISRDNSKNTLYLQMNSLRAEDTATYYCARELLYFGSSYYDLWGQGTLVTVSS
VL: DVVMTQSPSTLSASVGDRVTITCQASQNIDSNLAWYQQKPGKAPKFLIYYASNLPFGVPSRFKGSGSGTEFTLTISSLQPDDFATYYCQSADVGSTYVAAFGGGTKVEIKR
notes: light chain carries C90S; also called D1; IgG1-3009-016-H5L2-F405L-E430G-LC90S
Take B13: the binding result in test [1] was “binds”.

B14: IgG1-016-H5L2 (antibody)
heavy: not shown
light: B12 light
notes: Humanized, IgG1,kappa
On to B14, for which the binding result in test [1] is on record as “binds”.

B15: IgG1-016-H5L2-F405L-E430G (antibody)
heavy: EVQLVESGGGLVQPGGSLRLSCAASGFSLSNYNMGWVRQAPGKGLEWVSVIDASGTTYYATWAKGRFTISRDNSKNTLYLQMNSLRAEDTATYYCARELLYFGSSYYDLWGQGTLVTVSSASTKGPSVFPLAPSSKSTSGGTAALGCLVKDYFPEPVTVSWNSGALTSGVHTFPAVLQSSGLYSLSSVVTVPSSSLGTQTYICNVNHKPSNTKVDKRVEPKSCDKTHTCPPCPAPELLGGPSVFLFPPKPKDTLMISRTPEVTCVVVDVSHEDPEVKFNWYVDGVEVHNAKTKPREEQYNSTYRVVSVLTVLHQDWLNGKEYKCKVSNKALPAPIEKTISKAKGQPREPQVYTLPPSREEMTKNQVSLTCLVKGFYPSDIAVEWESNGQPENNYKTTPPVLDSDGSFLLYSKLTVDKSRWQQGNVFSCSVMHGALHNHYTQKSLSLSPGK
light: B12 light
notes: IgG1,kappa with F405L and E430G
Regarding B15, the binding result in test [1] was “binds”.
